The values that follow come from US20130157934A1 (INDIANA UNIVERSITY RESEARCH AND TECHNOLOGY, published 2013).

Where two headings read alike, the source gives them in different places. Positions of bridges follow the written chain, without caps; N, C: chain ends. Non-standard residues stand in square brackets, D forms with d. No end group written: not given here. PhLac = O=C(O)[C@@H](O)Cc1ccccc1

What all share (experiment): cell-based or functional assay
For assay [1], the target named is T1, glucagon receptor (UniProt P47871 26-477, limits assumed).
Assay [2] addresses T2, GLP-1 receptor (UniProt P43220 24-463, limits assumed).
The target in assay [3] is T1, glucagon receptor. This is another data set of the same source.
For assay [4], the target named is T2, GLP-1 receptor. This is another data set of the same source.

T1 sequence (P47871 26-477 limits assumed): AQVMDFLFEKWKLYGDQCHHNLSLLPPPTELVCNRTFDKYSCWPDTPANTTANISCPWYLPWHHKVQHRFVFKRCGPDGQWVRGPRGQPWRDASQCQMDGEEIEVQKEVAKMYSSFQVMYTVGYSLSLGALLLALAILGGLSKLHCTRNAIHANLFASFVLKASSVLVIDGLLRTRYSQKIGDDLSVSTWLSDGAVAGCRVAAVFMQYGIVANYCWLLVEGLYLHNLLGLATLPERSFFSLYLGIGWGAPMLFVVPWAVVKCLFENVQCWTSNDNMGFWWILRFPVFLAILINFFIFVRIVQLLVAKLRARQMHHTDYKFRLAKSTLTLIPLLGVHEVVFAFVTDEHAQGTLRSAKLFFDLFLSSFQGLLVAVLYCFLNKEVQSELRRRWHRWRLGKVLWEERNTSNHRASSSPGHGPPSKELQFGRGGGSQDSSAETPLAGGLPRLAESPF
T2 sequence (P43220 24-463 limits assumed): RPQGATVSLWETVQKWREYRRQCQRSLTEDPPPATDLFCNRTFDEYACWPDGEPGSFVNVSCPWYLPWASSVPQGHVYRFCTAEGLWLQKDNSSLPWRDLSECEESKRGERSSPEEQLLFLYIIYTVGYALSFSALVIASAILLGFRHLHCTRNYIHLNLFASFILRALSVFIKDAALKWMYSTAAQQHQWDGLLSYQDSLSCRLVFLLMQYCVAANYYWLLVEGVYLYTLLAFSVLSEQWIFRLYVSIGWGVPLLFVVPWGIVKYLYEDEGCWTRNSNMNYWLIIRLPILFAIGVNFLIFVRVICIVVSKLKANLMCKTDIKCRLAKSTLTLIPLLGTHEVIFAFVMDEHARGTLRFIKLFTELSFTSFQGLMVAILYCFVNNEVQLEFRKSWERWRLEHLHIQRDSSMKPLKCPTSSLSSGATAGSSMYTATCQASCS

Turning to [PhLac]TSDYSKYLDERRAQDFVQWLMDT-NH2 (lactam 7-11; not fully specified) [[PLA6, D9, K12E16(Lactam), D28]G(6-29)], the Glucagon IC50 in assay [1] stood at 63 nM; in assay [3], 13 nM. The GLP-1 EC50 in assay [2] is 177 nM; in assay [4], 21 nM.
